Publication PMC5363870, “A functional variant in NEPH3 gene confers high risk of renal failure in primary hematuric glomerulopathies. Evidence for predisposition to microalbuminuria in the general population” (PLoS ONE, 2017)
Positions count from the first letter of the chain named. Names may count otherwise.

B1: Nephrin (Nphs1) (natural protein, human, UniProt O60500 23-1241, looked up)
chain: QLAIPASVPRGFWALPENLTVVEGASVELRCGVSTPGSAVQWAKDGLLLGPDPRIPGFPRYRLEGDPARGEFHLHIEACDLSDDAEYECQVGRSEMGPELVSPRVILSILVPPKLLLLTPEAGTMVTWVAGQEYVVNCVSGDAKPAPDITILLSGQTISDISANVNEGSQQKLFTVEATARVTPRSSDNRQLLVCEASSPALEAPIKASFTVNVLFPPGPPVIEWPGLDEGHVRAGQSLELPCVARGGNPLATLQWLKNGQPVSTAWGTEHTQAVARSVLVMTVRPEDHGAQLSCEAHNSVSAGTQEHGITLQVTFPPSAIIILGSASQTENKNVTLSCVSKSSRPRVLLRWWLGWRQLLPMEETVMDGLHGGHISMSNLTFLARREDNGLTLTCEAFSEAFTKETFKKSLILNVKYPAQKLWIEGPPEGQKLRAGTRVRLVCLAIGGNPEPSLMWYKDSRTVTESRLPQESRRVHLGSVEKSGSTFSRELVLVTGPSDNQAKFTCKAGQLSASTQLAVQFPPTNVTILANASALRPGDALNLTCVSVSSNPPVNLSWDKEGERLEGVAAPPRRAPFKGSAAARSVLLQVSSRDHGQRVTCRAHSAELRETVSSFYRLNVLYRPEFLGEQVLVVTAVEQGEALLPVSVSANPAPEAFNWTFRGYRLSPAGGPRHRILSSGALHLWNVTRADDGLYQLHCQNSEGTAEARLRLDVHYAPTIRALQDPTEVNVGGSVDIVCTVDANPILPGMFNWERLGEDEEDQSLDDMEKISRGPTGRLRIHHAKLAQAGAYQCIVDNGVAPPARRLLRLVVRFAPQVEHPTPLTKVAAAGDSTSSATLHCRARGVPNIVFTWTKNGVPLDLQDPRYTEHTYHQGGVHSSLLTIANVSAAQDYALFTCTATNALGSDQTNIQLVSISRPDPPSGLKVVSLTPHSVGLEWKPGFDGGLPQRFCIRYEALGTPGFHYVDVVPPQATTFTLTGLQPSTRYRVWLLASNALGDSGLADKGTQLPITTPGLHQPSGEPEDQLPTEPPSGPSGLPLLPVLFALGGLLLLSNASCVGGVLWQRRLRRLAEGISEKTEAGSEEDRVRNEYEESQWTGERDTQSSTVSTTEAEPYYRSLRDFSPQLPPTQEEVSYSRGFTGEDEDMAFPGHLYDEVERTYPPSGAWGPLYDEVQMGPWDLHWPEDTYQDPRGIYDQVAGDLDTLEPDSLPFELRGHLV
notes: Nephrin, human NPHS1 cDNA cloned into a modified pcDNA6 vector behind the CD5 signal peptide and the V5 tag (sV5-tag); A CD5 signal peptide precedes the V5 tag in the construct; also called sV5-Nphs1; sV5-Nephrin; source: HEK 293T, transfected (calcium phosphate), in lysate; not shown: V5, N-terminal, kept
B2: Neph3 (filtrin) 353M variant (natural protein, human, UniProt Q6UWL6 21-708, looked up)
chain: GPSPHFLQQPEDLVVLLGEEARLPCALGAYWGLVQWTKSGLALGGQRDLPGWSRYWISGNAANGQHDLHIRPVELEDEASYECQATQAGLRSRPAQLHVLVPPEAPQVLGGPSVSLVAGVPANLTCRSRGDARPTPELLWFRDGVLLDGATFHQTLLKEGTPGSVESTLTLTPFSHDDGATFVCRARSQALPTGRDTAITLSLQYPPEVTLSASPHTVQEGEKVIFLCQATAQPPVTGYRWAKGGSPVLGARGPRLEVVADASFLTEPVSCEVSNAVGSANRSTALDVLFGPILQAKPEPVSVDVGEDASFSCAWRGNPLPRVTWTRRGGAQMLGSGATLRLPSVGPEDAGDYVCRAEAGLSGLRGGAAEARLTVNAPPVVTALHSAPAFLRGPARLQCLVFASPAPDAVVWSWDEGFLEAGSQGRFLVETFPAPESRGGLGPGLISVLHISGTQESDFSRSFNCSARNRLGEGGAQASLGRRDLLPTVRIVAGVAAATTTLLMVITGVALCCWRHSKASASFSEQKNLMRIPGSSDGSSSRGPEEEETGSREDRGPIVHTDHSDLVLEEEGTLETKDPTNGYYKVRGVSVSLSLGEAPGGGLFLPPPSPLGPPGTPTFYDFNPHLGMVPPCRLYRARAGYLTTPHPRAFTSYIKPTSFGPPDLAPGTPPFPYAAFPTPSHPRLQTHV
notes: Neph3 (filtrin), human NEPH3 cDNA with the natural variant V353M (GTG to ATG by site-directed mutagenesis); Each copy carries ONE tag: FLAG on the bait copy, HA on the prey copy of the homodimerisation co-IP; Two FLAG constructs are described (Origene pCMV6 with FLAG-tag; modified pcDNA6 with CD5 signal peptide fused to the FLAG-tag); also called NEPH3-V353M; NEPH3-p.V353M; source: HEK 293T, …
B3: Neph3 (filtrin) 353V (natural protein, human, UniProt Q6UWL6 21-708, looked up)
chain: B2 chain with M333V
notes: Neph3 (filtrin), human NEPH3 cDNA, wild-type allele with valine at position 353; Each copy carries ONE tag: FLAG on the bait copy, HA on the prey copy of the homodimerisation co-IP; Two FLAG constructs are described (Origene pCMV6 with FLAG-tag; modified pcDNA6 coding for the CD5 signal peptide fused to the FLAG-tag); In the pcDNA6 constructs a CD5 signal peptide precedes the tag; also called …

Key:
Test in all cases: co-IP; HEK 293T cells co-transfected, lysed in IP-buffer (1% Triton X-100, 20 mM Tris pH 7.5, 25 mM NaCl); FLAG-Neph3 precipitated with anti-FLAG, blot with anti-HA (HA-Neph3) or anti-V5 (sV5-nephrin); densitometry (ImageJ) normalised to input, wild type set at 1.0, n = 3
[1] = biological target: B2; details: partners not purified
Neph3 (filtrin) 353V = biological target: B3; details: partners not purified
[2] = biological target: the molecule itself

Binder	mean densitometry value (co-IP) [1]	mean normalized densitometry value (co-IP) (Neph3 (filtrin) 353V)	mean normalized densitometry value (co-IP) [2]
B1	1.18 relative to wild type (1.0)	1 relative to wild type (1.0)	
B2		4.33 relative to wild type (1.0)	23.8 relative to wild type (1.0)
B3			1 relative to wild type (1.0)
